US11440969B2, “Use of human epididymis protein 4 (HE4) for assessing responsiveness of MUC 16-positive cancer treatment” (Genentech, Inc., priority 2016, dated 2022)

Test: Safety of DMUC5754A in patients: related adverse events, DLT, MTD/RP2D (NCI CTCAE v4.0)
Format: in vivo, human
Conditions: for Median time to onset of first PN on study / On study PN = No, patients n (%) / On study PN = Yes, patients n (%): q3w dosing
Experimental: This multicenter, open-label, dose-escalation study was designed to identify the recommended Phase II dose (RP2D) of DMUC5754A in patients with platinum-resistant OC or unresectable pancreatic cancer. In the single-agent dose escalation stage utilizing a 3+3 enrollment scheme, patients were given intravenous DMUC5754A (Genentech Inc.) 0.3-3.2 mg/kg every 3 weeks (q3w) to evaluate the safety, tolerability, and pharmacokinetics of DMUC5754A. Following determination of the maximum tolerated dose (MTD), dose-expansion cohorts were enrolled at the RP2D of 2.4 mg/kg to further characterize the safety and preliminary clinical efficacy of DMUC5754A.
Dosing on a weekly (qlw) schedule was also evaluated at the RP2D, employing a 3+3 design to determine the MTD of weekly dosing, followed by a cohort expansion to further characterize the safety and activity of q1w dosing.
Safety was evaluated according to NCI CTCAE v4.0. […] The maximum tolerated dose (MTD) was defined as the dose at which ≤1 of 6 patients at an assigned dose with protocol-defined DLT. Patients who experienced a DLT or adverse event (AE) meeting DLT criteria after the DLT assessment window were allowed to delay dosing for up to 2 weeks or undergo a dose reduction.

[1] = q3w patients, over all dose levels

B1: DMUC5754A: antibody-drug conjugate: humanized IgG1 anti-MUC16 monoclonal antibody and MMAE, linked through protease labile linker maleimidocaproyl-valine-citrulline-p-aminobenzyloxycarbonyl (conjugate, chains of the INN, looked up)
VH: EVQLVESGGGLVQPGGSLRLSCAASGYSITNDYAWNWVRQAPGKGLEWVGYISYSGYTTYNPSLKSRFTISRDTSKNTLYLQMNSLRAEDTAVYYCARWTSGLDYWGQGTLVTVSS
VL: DIQMTQSPSSLSASVGDRVTITCKASDLIHNWLAWYQQKPGKAPKLLIYGATSLETGVPSRFSGSGSGTDFTLTISSLQPEDFATYYCQQYWTTPFTFGQGTKVEIK
modifications: MMAE via mc-vc-PABC linker
Pyrexia (related AE), patients (q3w 0.3 mg/kg (n = 3)): 0
Vomiting (related AE), patients (q3w 0.3 mg/kg (n = 3)): 0
Alopecia (related AE), patients (q3w 0.6 mg/kg (n = 3)): 0
Any adverse events (related), patients (q3w 0.6 mg/kg (n = 3)): 1
Arthralgia (related AE), patients (q3w 0.6 mg/kg (n = 3)): 0
Asthenia (related AE), patients (q3w 0.6 mg/kg (n = 3)): 0
Decreased appetite (related AE), patients (q3w 0.6 mg/kg (n = 3)): 0
Diarrhea (related AE), patients (q3w 0.6 mg/kg (n = 3)): 1
Dysgeusia (related AE), patients (q3w 0.6 mg/kg (n = 3)): 0
Fatigue (related AE), patients (q3w 0.6 mg/kg (n = 3)): 1
Hypokalemia (related AE), patients (q3w 0.6 mg/kg (n = 3)): 0
Hypomagnesaemia (related AE), patients (q3w 0.6 mg/kg (n = 3)): 0
Hypophosphatemia (related AE), patients (q3w 0.6 mg/kg (n = 3)): 0
Nausea (related AE), patients (q3w 0.6 mg/kg (n = 3)): 0
Neutropenia (related AE), patients (q3w 0.6 mg/kg (n = 3)): 0
Peripheral neuropathy (related AE), patients (q3w 0.6 mg/kg (n = 3)): 0
Pyrexia (related AE), patients (q3w 0.6 mg/kg (n = 3)): 0
Vomiting (related AE), patients (q3w 0.6 mg/kg (n = 3)): 1
Alopecia (related AE), patients (q3w 1.2 mg/kg (n = 3)): 0
Any adverse events (related), patients (q3w 1.2 mg/kg (n = 3)): 3
Arthralgia (related AE), patients (q3w 1.2 mg/kg (n = 3)): 0
Asthenia (related AE), patients (q3w 1.2 mg/kg (n = 3)): 0
Decreased appetite (related AE), patients (q3w 1.2 mg/kg (n = 3)): 2
Diarrhea (related AE), patients (q3w 1.2 mg/kg (n = 3)): 1
Dysgeusia (related AE), patients (q3w 1.2 mg/kg (n = 3)): 0
Fatigue (related AE), patients (q3w 1.2 mg/kg (n = 3)): 1
Hypokalemia (related AE), patients (q3w 1.2 mg/kg (n = 3)): 0
Hypomagnesaemia (related AE), patients (q3w 1.2 mg/kg (n = 3)): 0
Hypophosphatemia (related AE), patients (q3w 1.2 mg/kg (n = 3)): 0
Nausea (related AE), patients (q3w 1.2 mg/kg (n = 3)): 0
Neutropenia (related AE), patients (q3w 1.2 mg/kg (n = 3)): 0
Peripheral neuropathy (related AE), patients (q3w 1.2 mg/kg (n = 3)): 0
Pyrexia (related AE), patients (q3w 1.2 mg/kg (n = 3)): 0
Vomiting (related AE), patients (q3w 1.2 mg/kg (n = 3)): 1
Alopecia (related AE), patients (q3w 1.8 mg/kg (n = 3)): 1
Any adverse events (related), patients (q3w 1.8 mg/kg (n = 3)): 2
Arthralgia (related AE), patients (q3w 1.8 mg/kg (n = 3)): 2
Asthenia (related AE), patients (q3w 1.8 mg/kg (n = 3)): 0
Decreased appetite (related AE), patients (q3w 1.8 mg/kg (n = 3)): 1
Diarrhea (related AE), patients (q3w 1.8 mg/kg (n = 3)): 2
Dysgeusia (related AE), patients (q3w 1.8 mg/kg (n = 3)): 0
Fatigue (related AE), patients (q3w 1.8 mg/kg (n = 3)): 1
Hypokalemia (related AE), patients (q3w 1.8 mg/kg (n = 3)): 0
Hypomagnesaemia (related AE), patients (q3w 1.8 mg/kg (n = 3)): 2
Hypophosphatemia (related AE), patients (q3w 1.8 mg/kg (n = 3)): 1
Nausea (related AE), patients (q3w 1.8 mg/kg (n = 3)): 1
Neutropenia (related AE), patients (q3w 1.8 mg/kg (n = 3)): 0
Peripheral neuropathy (related AE), patients (q3w 1.8 mg/kg (n = 3)): 2
Pyrexia (related AE), patients (q3w 1.8 mg/kg (n = 3)): 2
Vomiting (related AE), patients (q3w 1.8 mg/kg (n = 3)): 0
Alopecia (related AE), patients (q3w 2.4 mg/kg (n = 39)): 9
Any adverse events (related), patients (q3w 2.4 mg/kg (n = 39)): 39
Arthralgia (related AE), patients (q3w 2.4 mg/kg (n = 39)): 5
Asthenia (related AE), patients (q3w 2.4 mg/kg (n = 39)): 5
Decreased appetite (related AE), patients (q3w 2.4 mg/kg (n = 39)): 11
Diarrhea (related AE), patients (q3w 2.4 mg/kg (n = 39)): 8
Dysgeusia (related AE), patients (q3w 2.4 mg/kg (n = 39)): 7
Fatigue (related AE), patients (q3w 2.4 mg/kg (n = 39)): 26
Hypokalemia (related AE), patients (q3w 2.4 mg/kg (n = 39)): 4
Hypomagnesaemia (related AE), patients (q3w 2.4 mg/kg (n = 39)): 6
Hypophosphatemia (related AE), patients (q3w 2.4 mg/kg (n = 39)): 2
Nausea (related AE), patients (q3w 2.4 mg/kg (n = 39)): 15
Neutropenia (related AE), patients (q3w 2.4 mg/kg (n = 39)): 8
Peripheral neuropathy (related AE), patients (q3w 2.4 mg/kg (n = 39)): 17
Pyrexia (related AE), patients (q3w 2.4 mg/kg (n = 39)): 7
Vomiting (related AE), patients (q3w 2.4 mg/kg (n = 39)): 10
Alopecia (related AE), patients (q3w 3.2 mg/kg (n = 3)): 1
Any adverse events (related), patients (q3w 3.2 mg/kg (n = 3)): 3
Arthralgia (related AE), patients (q3w 3.2 mg/kg (n = 3)): 1
Asthenia (related AE), patients (q3w 3.2 mg/kg (n = 3)): 1
Decreased appetite (related AE), patients (q3w 3.2 mg/kg (n = 3)): 1
Diarrhea (related AE), patients (q3w 3.2 mg/kg (n = 3)): 1
Dysgeusia (related AE), patients (q3w 3.2 mg/kg (n = 3)): 1
Fatigue (related AE), patients (q3w 3.2 mg/kg (n = 3)): 2
Hypokalemia (related AE), patients (q3w 3.2 mg/kg (n = 3)): 2
Hypomagnesaemia (related AE), patients (q3w 3.2 mg/kg (n = 3)): 0
Hypophosphatemia (related AE), patients (q3w 3.2 mg/kg (n = 3)): 3
Nausea (related AE), patients (q3w 3.2 mg/kg (n = 3)): 3
Neutropenia (related AE), patients (q3w 3.2 mg/kg (n = 3)): 1
Peripheral neuropathy (related AE), patients (q3w 3.2 mg/kg (n = 3)): 1
Pyrexia (related AE), patients (q3w 3.2 mg/kg (n = 3)): 2
Vomiting (related AE), patients (q3w 3.2 mg/kg (n = 3)): 3
Alopecia (related AE), patients (q3w All Patients (n = 54)): 11
Any adverse events (related), patients (q3w All Patients (n = 54)): 51
Arthralgia (related AE), patients (q3w All Patients (n = 54)): 8
Asthenia (related AE), patients (q3w All Patients (n = 54)): 6
Decreased appetite (related AE), patients (q3w All Patients (n = 54)): 16
Diarrhea (related AE), patients (q3w All Patients (n = 54)): 13
Dysgeusia (related AE), patients (q3w All Patients (n = 54)): 8
Fatigue (related AE), patients (q3w All Patients (n = 54)): 31
Hypokalemia (related AE), patients (q3w All Patients (n = 54)): 6
Hypomagnesaemia (related AE), patients (q3w All Patients (n = 54)): 9
Hypophosphatemia (related AE), patients (q3w All Patients (n = 54)): 6
Nausea (related AE), patients (q3w All Patients (n = 54)): 20
Neutropenia (related AE), patients (q3w All Patients (n = 54)): 9
Peripheral neuropathy (related AE), patients (q3w All Patients (n = 54)): 21
Pyrexia (related AE), patients (q3w All Patients (n = 54)): 11
Vomiting (related AE), patients (q3w All Patients (n = 54)): 15
patients with AEs leading to treatment discontinuation (q3w cohorts, 3/54 patients): 5.6%
Median time to onset of first PN on study (Prior neuropathy = No): 71 days
On study PN = No, patients n (%) (Prior neuropathy = No): 11 (20%)
On study PN = Yes, patients n (%) (Prior neuropathy = No): 18 (33%)
Median time to onset of first PN on study (Prior neuropathy = Yes): 148 days
On study PN = No, patients n (%) (Prior neuropathy = Yes): 20 (37%)
On study PN = Yes, patients n (%) (Prior neuropathy = Yes): 5 (9%)
Median time to onset of first PN on study (Total): 99 days
On study PN = No, patients n (%) (Total): 31 (57%)
On study PN = Yes, patients n (%) (Total): 23 (43%)
Drug-related SAE hypocalcemia, patients (q3w patients): 1
Drug-related SAE neutropenia, patients (q3w patients): 1
Drug-related SAE small intestine obstruction, patients (q3w patients): 2
alopecia, related AE [1]: 20.4%
decreased appetite, related AE [1]: 29.6%
diarrhea, related AE [1]: 24.1%
fatigue, related AE [1]: 57.4%
nausea, related AE [1]: 37.0%
peripheral sensory neuropathy, related AE [1]: 27.8%
pyrexia, related AE [1]: 20.4%
vomiting, related AE [1]: 27.8%
Grade ≥3 related fatigue (q3w patients, total): 7.4%
Grade ≥3 related neutropenia (q3w patients, total): 9.3%
RP2D (q3w schedule): 2.4 mg/kg
Grade ≥3 related fatigue, patients (q3w, at 2.4 mg/kg): 4
Grade ≥3 related neutropenia, patients (q3w, at 2.4 mg/kg): 4
